From patent US20040132130

System: Ac-Ala-Ala-Pro-Thr(Man)-Pro-Val-Ala-Ala-Pro-NH2

Sequence of His-Xpress-sOMGnT(L) (chain, as listed by the source): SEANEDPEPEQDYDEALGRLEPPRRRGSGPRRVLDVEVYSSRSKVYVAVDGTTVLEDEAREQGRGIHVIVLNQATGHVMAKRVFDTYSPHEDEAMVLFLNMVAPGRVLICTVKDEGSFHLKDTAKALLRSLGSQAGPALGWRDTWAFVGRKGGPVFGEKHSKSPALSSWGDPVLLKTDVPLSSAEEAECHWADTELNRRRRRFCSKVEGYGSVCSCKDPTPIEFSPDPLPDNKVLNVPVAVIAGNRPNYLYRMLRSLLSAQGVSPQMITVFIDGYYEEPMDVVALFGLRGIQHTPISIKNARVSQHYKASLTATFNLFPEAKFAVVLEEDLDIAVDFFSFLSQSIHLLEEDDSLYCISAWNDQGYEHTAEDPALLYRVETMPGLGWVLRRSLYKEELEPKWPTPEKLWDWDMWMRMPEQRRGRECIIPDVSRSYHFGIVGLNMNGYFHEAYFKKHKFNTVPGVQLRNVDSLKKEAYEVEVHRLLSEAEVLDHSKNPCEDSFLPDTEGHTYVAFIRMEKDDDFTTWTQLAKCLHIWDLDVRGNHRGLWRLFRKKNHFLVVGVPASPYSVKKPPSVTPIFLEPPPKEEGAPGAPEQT

His-Xpress-sOMGnT(L)
Km value: 1850 µM
OMGnT activity (pmol/hr/mg protein) (pmol/hr/mg protein): 15
OMGnT relative activity (%): 100%
